In patent publication US20190240316A1 (VANDERBILT UNIVERSITY, published 2019):

B1: mAb 14N4 (antibody, V domains shown)
VH: QVQLVESGGGLIQPGGSLRLSCAVSGFTVSSKYMTWVRQAPGKGLEWVSVIYGGGSTYYADSVVGRFTISRDNSKNTLYLQMNSLRAEDTAVYYCASRLGVRATTGDLDYWGQGTLVTVSS
VL: QIVMTQSPSTLSASVGDRVTITCRASQSISSWLAWYQQKPGKAPKLLIYDASSLESGVPSRFSGSGSGTEFTLTISSLQPDDFATYYCQQYNTYSWWTFGQGTKVEIK
B2: mAb 3J20 (antibody, V domains shown)
VH: EVQLVESGGGLVQPGGSLRLSCAASGFTFSSFTMNWVRQAPGKGLQWVSTISGSGGLTYYADSVKGRFTISRDNSKNTLSLQMNSLRAEDTAVYYCARDLEFTVTSYGGYYFEYWGQGTLVTVSS
VL: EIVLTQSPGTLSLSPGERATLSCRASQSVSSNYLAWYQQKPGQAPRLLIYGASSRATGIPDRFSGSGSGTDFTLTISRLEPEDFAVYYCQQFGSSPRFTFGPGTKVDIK
B3: mAb 13A8 (antibody, V domains shown)
VH: QVQLVESGGGVVQPGKSLRLSCAASGYIFSSYDMHWVRQAPGKGLEWVAVISFDGTTQHYADSVRGRFTVSRDNSQNTVFLQMNSLRPEDTAVYYCVKEYVIVSTFFDYWGQGTLVTVSS
VL: DIVMTQSPSSLSASVGDRVTITCRASQGIRNALGWYQHKPGKAPKVLIYAASRLQSGVPSRFSGSGSGTDFTLTISSLQPEDFATYYCLQDFNYPWTFGHGTKVEIK
B4: mAb 14C16 (antibody, V domains shown)
VH: QVQLGESGPALVKPTQTLTLTCTFSGFSLSTSEMCVSWIRQPPGKALEWLALIDWDGDKFFSTSLQSRLTISKSPSNNQVVLTMTNMDPVDSGTYFCARSTVRRSSGYYYYVLDVWGQGTLVTVSS
VL: QIVMTQSPSSLSASVGDRVTISCRASQSIGTYVNWYQHKPGKAPKVLISGASNLHSGVPSRFSGSGSGTDFTLTISSLQPEDFATYYCQQSYSPLTFGGGTTVEMK
B5: mAb 9J5 (antibody, V domains shown)
VH: QVQLVQSGAEVKKPGSSVTVSCKASGGSFTNYAFSWVRQAPGQGLEWMGGIIPLLNMPNYAQKFRGRVTISADQSTTTAYMELSRLTSEDTAIYFCARGGQVGDFIVLRHFDSWGQGTLVTVSS
VL: TLSCRASESVSNYLAWYQQKPGQTPRLLIYGASTRATGIPARFSGSGSGSEFTLTISSLQSEDFAVYYCQQYNDWPRFSFGQGTKLEIK
B6: mAb 10F13 (antibody, V domains shown)
VH: QVQLVQSGGGVVQPGRSLRLSCAASGFPFRIYSMHWVRQAPGKGLEWVALISYDGTNKQYADSVNGRFTISRDNSENTMYLQMNSLRPEDTAIYYCATDIVELVTATDYWGQGTLVTVSS
VL: AVVTQSPGTLSLSPGDRATLSCRASQSVSTSLGWYQQKPGQSPRLLIYGTSRRATGVPDRFSGSGSETDFTLTISRLEPEDFSVYYCQQYGSSPYTFGQGTRLEIK
notes: The printed light chain has an unusual N-terminal part
B7: mAb 4B6 (antibody, V domains shown)
VH: QVQLVQSGGGLAQPGRSLRLSCRASGFTFGDFNMNWFRQAPGKGLEWVGFIRRKAFGGATEYAASVKGRLTISRDDSKSIAYLQMNSLKTEDTAVYYCTRERGYVGSGGPFFDYWGQGTLVTVSS
VL: QAVVTQPPSVSGAPGQRVTISCTGSSSNIGAGYDVHWYQQLPGTAPKLLIYGDSNRPSGVPDRFSGSSSGTSASLAITGLQAEDEADYYCQSYDNSLSGSVFGTGTKVTVL
B8: motavizumab (antibody, V domains shown)
VH: QVTLRESGPALVKPTQTLTLTCTFSGFSLSTAGMSVGWIRQPPGKALEWLADIWWDDKKHYNPSLKDRLTISKDTSKNQVVLKVTNMDPADTATYYCARDMIFNFYFDVWGQGTTVTVSS
VL: DIQMTQSPSTLSASVGDRVTITCSASSRVGYMHWYQQKPGKAPKLLIYDTSKLASGVPSRFSGSGSGTEFTLTISSLQPDDFATYYCFQGSGYPFTFGGGTKVEIK
B9: mAb D25 (antibody, V domains shown)
VH: QVQLVQSGAEVKKPGSSVMVSCQASGGPLRNYIINWLRQAPGQGPEWMGGIIPVLGTVHYAPKFQGRVTITADESTDTAYIHLISLRSEDTAMYYCATETALVVSTTYLPHYFDNWGQGTLVTVSS
VL: DIQMTQSPSSLSAAVGDRVTITCQASQDIVNYLNWYQQKPGKAPKLLIYVASNLETGVPSRFSGSGSGTDFSLTISSLQPEDVATYYCQQYDNLPLTFGGGTKVEIKR
B10: mAb 12I1 (antibody, V domains shown)
VH: QVQLVQSGGGVVQPGQSLRLSCAASGFSFSDYPIHWVRQAPGKGLEWVAGISYYGSNKFYADSVRGRFTISRDTSKNTFNLQMNSLKSEDTAVYYCARDGNPPRFLEYFDYWGQGTLVTVSS
VL: QPVVTQPRSVSGSPGQSVTISCTGSSSDVGGYNFVSWYRHHPGKAPKLLIYHVTKRPSGVPDRFSGSKSGNTASLTISGLQAEDEADYYCCSYAGSYTYVLFGGGTKLTVL
notes: Non-neutralizing, antigenic site VII

Experiments:
[1] = target: F protein on infectious RSV strain A2 (human respiratory syncytial virus …, UniProt P03420 26-574); assay: cell-based or functional assay
Target sequence in this assay (P03420 26-574): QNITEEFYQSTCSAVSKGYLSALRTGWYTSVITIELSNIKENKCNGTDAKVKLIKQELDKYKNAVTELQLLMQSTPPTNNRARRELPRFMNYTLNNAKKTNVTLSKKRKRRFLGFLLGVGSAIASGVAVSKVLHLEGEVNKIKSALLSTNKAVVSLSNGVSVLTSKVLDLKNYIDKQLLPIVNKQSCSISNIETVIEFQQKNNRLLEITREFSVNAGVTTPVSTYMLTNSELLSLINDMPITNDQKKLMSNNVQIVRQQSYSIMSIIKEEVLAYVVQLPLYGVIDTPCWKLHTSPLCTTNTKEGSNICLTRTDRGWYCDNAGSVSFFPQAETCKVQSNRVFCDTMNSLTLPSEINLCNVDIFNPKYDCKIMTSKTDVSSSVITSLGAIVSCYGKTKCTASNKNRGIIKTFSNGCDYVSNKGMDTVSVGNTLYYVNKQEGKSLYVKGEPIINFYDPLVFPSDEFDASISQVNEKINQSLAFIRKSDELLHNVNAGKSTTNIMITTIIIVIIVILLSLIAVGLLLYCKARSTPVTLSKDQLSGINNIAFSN

[2] = target: T1, recombinant post-fusion RSV strain A2 F protein (human respiratory syncytial virus …, UniProt P03420 26-109; P03420 147-513); assay: ELISA on coated antigen
T1 construct: Viral fusion glycoprotein, trimer of protomers (each cleaved into two disulfide-linked fragments); also called RSV A2; post-fusion RSV A2 F
T1 sequence (P03420 147-513, one chain of several): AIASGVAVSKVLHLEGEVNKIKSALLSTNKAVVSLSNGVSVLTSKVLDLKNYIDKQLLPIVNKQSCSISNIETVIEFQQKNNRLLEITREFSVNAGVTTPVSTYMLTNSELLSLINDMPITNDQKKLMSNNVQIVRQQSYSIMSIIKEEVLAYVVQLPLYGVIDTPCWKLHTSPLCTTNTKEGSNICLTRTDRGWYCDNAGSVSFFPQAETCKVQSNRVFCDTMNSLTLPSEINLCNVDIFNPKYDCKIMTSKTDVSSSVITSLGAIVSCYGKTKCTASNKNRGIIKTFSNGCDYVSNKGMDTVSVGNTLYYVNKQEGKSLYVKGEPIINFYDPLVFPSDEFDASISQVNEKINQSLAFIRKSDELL

[3] = target: T2, post-fusion F protein from RSV strain 18537 B (human respiratory syncytial virus …, UniProt P13843 26-109; P13843 147-513); assay: ELISA on coated antigen
T2 construct: also called RSV 18537 B; RSV 18537 B post-fusion F
T2 sequence (P13843 26-109, chain 1 of 2): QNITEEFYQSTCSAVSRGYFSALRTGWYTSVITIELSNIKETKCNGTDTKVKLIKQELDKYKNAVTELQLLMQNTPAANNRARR
T2 sequence (P13843 147-513, chain 2 of 2): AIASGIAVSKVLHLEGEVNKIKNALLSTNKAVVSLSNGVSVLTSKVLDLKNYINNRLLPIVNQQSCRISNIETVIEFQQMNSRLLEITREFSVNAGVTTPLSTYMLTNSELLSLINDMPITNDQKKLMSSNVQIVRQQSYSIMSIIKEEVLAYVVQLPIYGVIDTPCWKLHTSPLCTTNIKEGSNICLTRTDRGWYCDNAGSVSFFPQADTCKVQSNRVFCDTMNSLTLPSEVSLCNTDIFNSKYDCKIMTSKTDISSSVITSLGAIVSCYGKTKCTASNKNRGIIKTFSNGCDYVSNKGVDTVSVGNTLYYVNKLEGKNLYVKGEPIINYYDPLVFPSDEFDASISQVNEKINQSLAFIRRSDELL

[4] = target: F protein on infectious RSV strain A2 (human respiratory syncytial virus …, UniProt P03420 26-574); assay: cell-based or functional assay; remark: listed apart in the source
Target sequence in this assay (P03420 26-574): as the sequence (P03420 26-574) above

Binder	Neutralization (IC50; ng/mL) RSV A2, plaque-reduction assay [1] [ng/mL]	EC50 [2] [µg/mL]	EC50 [3] [µg/mL]	Neutralization (IC50; ng/mL) RSV A2, plaque-reduction assay [4] [ng/mL]
B1	695	0.078	0.057	
B2	377	0.084	0.05	
B3	55	0.082	0.064	
B4	> 100000	0.019	0.02	
B5	> 100000	0.03	0.04	
B6		0.017	0.021	
B7	> 100000	0.024	0.024	
B8		0.03	0.035	123
B9				21
B10	> 100000	0.026	0.033	
